B1: N-terminal His-tagged recombinant Ad3 fibre knob (His-Ad3K) (domain or fragment)
chain: NSIALKNNTLWTGPKPEANCIIEYGKQNPDSKLTLILVKNGGIVNGYVTLMGASDYVNTLFKNKNVSINVELYFDATGHILPDSSSLKTDLELKYKQTADFSARGFMPSTTAYPFVLPNAGTHNENYIFGQCYYKASDGALFPLEVTVMLNKRLPDSRTSYVMTFLWSLNAGLAPETTQATLITSPFTFSYIREDD
notes: human adenovirus serotype 3 (HAd3) fibre protein, knob, Asn124 to Asp319 of the full-length protein, GenBank ABB17809.1; The printed GenBank entry holds; also called HAd3 fibre knob; trimeric knob; source: E. coli Rosetta(DE3)pLysS, pETDuet-1; purified (His GraviTrap, Superdex 200); also co-expressed with MBP-DSG2 constructs, in lysate; not shown: His6, N-terminal, kept

What was measured:
[1] = target: the molecule itself; test: SEC-MALS; 50 uL at 1 mg/mL on Superdex 200 Increase 10/300 GL, 150 mM NaCl, 3 mM CaCl2, 10 mM Tris-Cl pH 8.0, 0.5 mL/min; co-expressed and co-purified MBP-free complex, and His-Ad3K alone
[2] = target: B1; test: as above; conditions: both partners purified
[3] = target: B1; test: AUC; sedimentation velocity (headed SE-AUC), 42,000 rpm, 20 °C, 3 mM CaCl2, 10 mM Tris pH 8.0, 150 mM NaCl; c(s) by SedFit; co-purified MBP-free complex, and His-Ad3K alone; two concentrations; conditions: both partners purified

Binder	stoichiometry N [1]	stoichiometry N [2]	stoichiometry N [3]
B1	3		
DSG2 EC2-3 after MBP removal (digested DSG2 EC2-3, bacterial) (domain or fragment, human, UniProt Q14126 149-386, looked up, Theoretical mass 27.8 kDa after TEV cleavage; not glycosylated (bacterial); also called MBP-free EC2-3; source: E. coli Rosetta(DE3)pLysS, co-expressed with His-Ad3K; co-purified (His GraviTrap), TEV-cleaved, second His GraviTrap, Superdex 200; not shown: MBP, N-terminal, cleaved) VLDINDNEPVFTQDVFVGSVEELSAAHTLVMKINATDADEPNTLNSKISYRIVSLEPAYPPVFYLNKDTGEIYTTSVTLDREEHSSYTLTVEARDGNGEVTDKPVKQAQVQIRILDVNDNIPVVENKVLEGMVEENQVNVEVTRIKVFDADEIGSDNWLANFTFASGNEGGYFHIETDAQTNEGIVTLIKEVDYEEMKNLDFSVIVANKAAFHKSIRSKYKPTPIPIKVKVKNVKEGI		1 DSG2 EC2-3 per His-Ad3K trimer	1 receptor per trimeric knob

From publication PMC5976663, “Mapping of Adenovirus of serotype 3 fibre interaction to desmoglein 2 revealed a novel ‘non-classical’ mechanism of viral receptor engagement” (Scientific Reports, 2018)
